Assay results reported in patent EP2420830B1 (Forschungsverbund Berlin e.V., dated 2016).

How the values were obtained:
[1] = molecular target: T1, GGA2 (from HeLa cell lysate) (human (HeLa cells), UniProt Q9UJY4 1-613); test: GST pull-down from HeLa cell extract, immunoblot
T1 sequence (looked up): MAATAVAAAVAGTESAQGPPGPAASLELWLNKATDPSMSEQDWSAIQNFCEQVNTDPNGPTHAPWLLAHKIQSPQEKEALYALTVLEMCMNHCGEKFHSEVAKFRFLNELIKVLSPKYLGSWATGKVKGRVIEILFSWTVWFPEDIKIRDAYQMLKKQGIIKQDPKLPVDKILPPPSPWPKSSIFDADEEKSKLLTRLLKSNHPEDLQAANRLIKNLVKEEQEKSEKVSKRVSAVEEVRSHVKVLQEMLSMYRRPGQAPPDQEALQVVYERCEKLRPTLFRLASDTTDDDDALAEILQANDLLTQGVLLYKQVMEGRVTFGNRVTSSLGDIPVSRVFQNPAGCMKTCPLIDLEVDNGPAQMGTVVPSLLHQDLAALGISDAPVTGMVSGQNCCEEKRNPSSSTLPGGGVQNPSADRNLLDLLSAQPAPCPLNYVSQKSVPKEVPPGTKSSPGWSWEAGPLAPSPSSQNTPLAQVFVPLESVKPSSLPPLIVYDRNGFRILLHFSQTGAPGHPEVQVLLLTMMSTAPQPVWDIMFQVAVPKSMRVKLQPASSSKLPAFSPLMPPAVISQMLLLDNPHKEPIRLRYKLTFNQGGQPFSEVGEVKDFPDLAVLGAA

[2] = molecular target: T2, GGA3 (from HeLa cell lysate) (human (HeLa cells), UniProt Q9NZ52 1-723); test: GST pull-down from HeLa cell extract, immunoblot
T2 sequence (looked up): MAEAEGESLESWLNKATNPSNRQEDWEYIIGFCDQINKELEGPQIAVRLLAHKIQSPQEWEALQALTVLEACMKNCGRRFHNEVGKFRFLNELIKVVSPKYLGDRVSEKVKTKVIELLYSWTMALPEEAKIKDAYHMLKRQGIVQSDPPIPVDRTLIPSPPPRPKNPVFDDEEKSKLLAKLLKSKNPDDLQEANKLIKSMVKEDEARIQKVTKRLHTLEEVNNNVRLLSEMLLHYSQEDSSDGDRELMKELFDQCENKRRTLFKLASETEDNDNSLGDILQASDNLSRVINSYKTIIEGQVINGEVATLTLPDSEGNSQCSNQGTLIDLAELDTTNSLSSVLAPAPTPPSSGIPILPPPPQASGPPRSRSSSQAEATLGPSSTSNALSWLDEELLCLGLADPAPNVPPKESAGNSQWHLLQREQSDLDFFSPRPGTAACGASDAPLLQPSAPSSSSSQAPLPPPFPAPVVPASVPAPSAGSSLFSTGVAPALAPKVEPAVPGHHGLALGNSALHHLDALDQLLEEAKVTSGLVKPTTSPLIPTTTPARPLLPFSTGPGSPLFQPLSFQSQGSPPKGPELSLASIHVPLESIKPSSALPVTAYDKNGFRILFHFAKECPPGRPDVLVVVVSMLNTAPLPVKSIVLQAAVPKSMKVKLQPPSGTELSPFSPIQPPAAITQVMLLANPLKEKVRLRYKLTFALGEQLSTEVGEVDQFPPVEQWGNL

binding result [1] | binding result [2] | Binder
no binding | no binding | GST fusion protein of the human CIC-7 N-terminus, mutant combining LL23/24AA and LL68/69AA (2xLLAA) (other, not shown: N-terminal GST tag of pGEX-5X-1 and the vector linker) MANVSKKVSWSGRDRDDEEAAPAARRTARPGGGTPLLNGAGPGAARQSPRSALFRVGHMSSVELDDEAADPDMDPPHPFPKEIPHNEKLLSLKYESLDYDNSENQLFLEEERRINHTAFRTVEIKR
no binding | no binding | GST fusion protein of the human CIC-7 N-terminus, mutant LL68/69AA (other, not shown: N-terminal GST tag of pGEX-5X-1 and the vector linker) MANVSKKVSWSGRDRDDEEAAPLLRRTARPGGGTPLLNGAGPGAARQSPRSALFRVGHMSSVELDDEAADPDMDPPHPFPKEIPHNEKLLSLKYESLDYDNSENQLFLEEERRINHTAFRTVEIKR
